The values below come from patent publication US7205275 (dated 2007).

Read-outs that look alike come from different tables or passages of the source. Primed or numbered codes have the meaning given here. Where no end group is shown, it is not given here. [ ]: non-standard residue; d: D form. Fc(3) = Fc: non-antigen-binding fragment of an antibody from proteolytic digestion of a whole antibody (vehicle); Fc(4) = non-antigen-binding fragment of an antibody (from proteolytic digestion of a whole antibody); Fc = immunoglobulin Fc domain fused to the peptide (peptibody); Fc(7) = Fc domain, peptide fused N- or C-terminal to it; Fc″ = Fc domain of the peptibody fusion

The target of experiment [1] is T1, human Ang-2 (human, UniProt O15123).
T1 chain: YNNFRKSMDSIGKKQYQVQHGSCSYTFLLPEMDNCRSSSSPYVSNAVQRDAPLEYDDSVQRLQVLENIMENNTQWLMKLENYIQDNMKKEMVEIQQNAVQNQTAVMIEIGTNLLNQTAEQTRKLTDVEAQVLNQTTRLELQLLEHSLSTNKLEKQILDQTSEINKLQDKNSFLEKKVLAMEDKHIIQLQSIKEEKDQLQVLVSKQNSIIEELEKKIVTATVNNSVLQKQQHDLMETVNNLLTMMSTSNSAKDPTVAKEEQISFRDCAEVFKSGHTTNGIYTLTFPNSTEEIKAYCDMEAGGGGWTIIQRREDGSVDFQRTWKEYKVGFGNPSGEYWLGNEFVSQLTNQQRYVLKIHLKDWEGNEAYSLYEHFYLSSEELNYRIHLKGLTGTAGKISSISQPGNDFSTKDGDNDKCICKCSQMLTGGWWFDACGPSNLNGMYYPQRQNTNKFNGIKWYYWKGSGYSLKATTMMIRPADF
Description: competition ELISA vs Tie-2. Background: In an ELISA, binding on a coated surface is turned into a signal by an enzyme label.

Experiment [2] has as its target T1, human Ang-2. Kind of experiment: competition ELISA vs Tie-2.

By IC50 is commonly meant the concentration that inhibits the measured activity by half. Read a high IC50 as weaker potency. In the experiment with human Ang-2 [1], MGAQQKFKPLDELEQTLYEQWTLQQRLEGGGGG-Fc [L1-C1 (N)] yielded an IC50 of 0.56 nM.
Still for that read-out and setting: the figure for MGAQSKFKPLDELEQTLYEQWTLQHALEGGGGG-Fc [L1-9 (N)] is 1.62 nM; for MGAQYKFTPLDDLEQTLYEQWTLQHVLEGGGGG[Fc(3)] [L1-12 (N)] it is 0.08 nM.

B1: Con1-2 (C) (peptide)
chain: M[Fc]GGGGGAQQTWDDPCMHILGPVTWRRCILE
modifications: not fully specified (bridges); cysteine pairing not given here; also: Fc fusion domain at position 2
B1 showed an IC50 with human Ang-2 [1] above 1000 nM.
M[Fc(4)]GGGGGAQQHWQEECEWDPWTCDHMPSKLE (not fully specified; cysteine pairing not given here) [Con4-46 (C)] came in with an IC50 with human Ang-2 [2] of 0.26 nM. This lies in the sub-nanomolar range.
M[Fc(7)]GGGGGAQFDYCEGVEDPFTFGCDNHLE (not fully specified (bridges); cysteine pairing not given here) [12-9 (C)] showed an IC50 in the experiment with human Ang-2 [1] of 15 nM. That is a double-digit nanomolar value.
Turning to M[Fc(7)]GGGGGAQTQGLHQCEWDPWTCKVLWPSLE (not fully specified (bridges); cysteine pairing not given here) [Con4-10 (C)], the IC50 with human Ang-2 [2] was found to be 86.6 nM. This counts as double-digit nanomolar.
Still for that read-out and setting: the figure for M[Fc(4)]GGGGGAQTTIGSMCEWDPWTCAHMQGGLE (not fully specified (bridges); cysteine pairing not given here) [Con4-C1 (C)] is 2.75 nM.
Same read-out and setting: in the case of M[Fc(7)]GGGGGAQGPRISTCQWDPWTCEHMDQLLE (not fully specified (bridges); cysteine pairing not given here) [Con4-17 (C)] it was 0.96 nM.
MGAQVKYKPLDELDEWLYHQFTLHHQLEGGGGG[Fc(3)] [L1-17 (N)] registered an IC50 in the experiment with human Ang-2 [1] of 0.08 nM.
As to M[Fc(7)]GGGGGAQRAPQEDCEWDPWTCAHMDIKLE (not fully specified (bridges); cysteine pairing not given here) [Con4-25 (C)], in the experiment with human Ang-2 [2], the IC50 was determined as 0.31 nM.
The same measure, in the same setting: the figure for M[Fc(7)]GGGGGAQRPEDMCSQWDPWTWHLQGYCLE (not fully specified (bridges); cysteine pairing not given here) [Con4-26 (C)] is above 1000 nM.
In turn, MGAQEDYMPLDALDAQLYEQFILLHGLEGGGGG-{Fc(3)} [L1-20 (N)] showed an IC50 with human Ang-2 [1] of 0.09 nM.
Regarding M[Fc(7)]GGGGGAQTKGKSVCQWDPWTCSHMQSGLE (not fully specified (bridges); cysteine pairing not given here) [Con4-21 (C)], in the experiment with human Ang-2 [2], the IC50 is 3.21 nM.
Same read-out and setting: the figure for M[Fc(4)]GGGGGAQWAQQEECAWDPWTCDHMVGLLE (not fully specified; cysteine pairing not given here) [Con4-45 (C)] is 0.48 nM.
M[Fc(7)]GGGGGAQLQEWCEGVEDPFTFGCEKQRLE (not fully specified (bridges); cysteine pairing not given here) [12-9-3 (C)] displayed an IC50 with human Ang-2 [1] of 0.81 nM. This lies in the sub-nanomolar range.
MGAQVKFKPLDALEQTLYEHWMFQQALEGGGGG-Fc [L1-4 (N)] gave an IC50 with human Ang-2 [1] of 0.08 nM.
M[Fc(7)]GGGGGAQTSQRVGCEWDPWTCQHLTYTLE (not fully specified (bridges); cysteine pairing not given here) [Con4-23 (C)] had an IC50 with human Ang-2 [2] of 9.88 nM.
The same measure, in the same setting: in the case of M[Fc(4)]GGGGGAQSISHEECEWDPWTCEHMQVGLE (not fully specified; cysteine pairing not given here) [Con4-43 (C)] it was 0.18 nM; in that of M[Fc]GGGGGAQPVNQEDCEWDPWTCEHMPPMLE (not fully specified; cysteine pairing not given here) [Con4-39 (C)], 0.3 nM.
In the experiment with human Ang-2 [1], MGAQTKFNPLDELEQTLYEQWTLQHQLEGGGGG-{Fc″} [L1-3 (N)] registered an IC50 of 0.16 nM.
Molecule M[Fc(4)]GGGGGAQLRHQEGCEWDPWTCEHMFDWLE (not fully specified; cysteine pairing not given here) [Con4-42 (C)] displayed an IC50 with human Ang-2 [2] of 0.17 nM.
On to M[Fc(7)]GGGGGAQAQDYCEGMEDPFTFGCEMQKLE (not fully specified (bridges); cysteine pairing not given here) [12-9-4 (C)], for which, in the experiment with human Ang-2 [1], the IC50 came to 2.05 nM. This counts as single-digit nanomolar.
M[Fc(7)]GGGGGAQGPAQEECEWDPWTCEPLPLMLE (not fully specified (bridges); cysteine pairing not given here) [Con4-30 (C)] registered an IC50 in the experiment with human Ang-2 [2] above 1000 nM.
Consider MGAQTNYKPLDELDATLYEHWILQHSLEGGGGG[Fc(7)] [AC6-L1 (N)], for which, in the experiment with human Ang-2 [1], the IC50 worked out at 0.03 nM.
As to M[Fc(7)]GGGGGAQHQEYCEGMEDPFTFGCEYQGLE (not fully specified (bridges); cysteine pairing not given here) [12-9-6 (C)], the IC50 in the experiment with human Ang-2 [1] stood at 0.95 nM.
On to M[Fc(7)]GGGGGAQFGWSHGCEWDPWTCEHMGSTLE (not fully specified (bridges); cysteine pairing not given here) [AC2-Con4 (C)], for which the IC50 with human Ang-2 [2] is 0.52 nM.
With M[Fc(7)]GGGGGAQGFEYCDGMEDPFTFGCDKQTLE (not fully specified (bridges); cysteine pairing not given here) [12-9-1 (C)], in the experiment with human Ang-2 [1], the IC50 is 1.84 nM.
On the same count and under the same terms, the figure for MGAQQKFQPLDELEETLYKQWTLQQRLEGGGGG[Fc(3)] [L1-16 (N)] is 0.11 nM; for MGAQQKYQPLDELDKTLYDQFMLQQGLEGGGGG[Fc(3)] [L1-15 (N)] it is 0.04 nM.
With M[Fc]GGGGGAQLPGQEDCEWDPWTCEHMVRSLE (not fully specified; cysteine pairing not given here) [Con4-37 (C)], the IC50 in the experiment with human Ang-2 [2] worked out at 0.49 nM.
Molecule M[Fc(7)]GGGGGAQAVGSQTCEWDPWTCAHLVEVLE (not fully specified (bridges); cysteine pairing not given here) [Con4-16 (C)] displayed an IC50 with human Ang-2 [2] of 6.94 nM.
Same read-out and setting: in the case of M[Fc(7)]GGGGGAQMGGAGRCEWDPWTCQLLQGWLE (not fully specified (bridges); cysteine pairing not given here) [Con4-13 (C)] it was above 1000 nM; in that of M[Fc(7)]GGGGGAQFGWSHGCEWDPWTCRLLQGWLE (not fully specified (bridges); cysteine pairing not given here) [Con4-2 (C)], above 1000 nM.
The same measure, in the same setting: in the case of M[Fc(7)]GGGGGAQNRLQEVCEWDPWTCEHMENVLE (not fully specified (bridges); cysteine pairing not given here) [Con4-31 (C)] it was 0.16 nM; in that of M[Fc(7)]GGGGGAQVLGGQGCEWDPWTCRLLQGWLE (not fully specified (bridges); cysteine pairing not given here) [AC4-Con4 (C)], 1.54 nM; in that of M[Fc(7)]GGGGGAQMFLPNECQWDPWTCSNLPEALE (not fully specified (bridges); cysteine pairing not given here) [Con4-14 (C)], above 1000 nM.
